Consider one substance from publication PMC11432317.

The target of the assay is receptor binding domain (RBD) of the SARS-CoV-2 spike protein (residues 319-541) (SARS-CoV-2) (UniProt P0DTC2). In words: SPR.

The substance “wild-type sACE2-Fc (soluble ACE2, residues 1-615, fused to human IgG Fc) (from UniProt Q9BYF1 18-615) (Fc fusion)” returned a Kd of 23.2 nM.
